Data reported in the DeepSol protein solubility set.

Assay: soluble on expression in E. coli; label from the status in PepcDB or PDB records

| Sequence | soluble on expression in E. coli |
| --- | --- |
| MKRLLLSAAILSSMALFNVNAQELKTSADMKGSFKKNVVLEVFTAEWCGYCPGGKERIAKAIEMLDDEYKERVFQTFVHYNDGISKKWPRVGQLFIALDQTLGIPGFPTFSVCRMEKKGENLSIGAPIAIKNKIMKGFGDGTAPAEVNLKLTKGATPEDVCTATFTGKVDADLIGKPLMLTAYVLKNNMKPINPQNGAGDGYLHQHTVLMILSTDVKGDALNIAADGSFTIKKEFKLDGFEIKDTDVLAFVHHPMSNAENHSIINAGQESLDKAEPTATEQIVATPSVKAYVQNGKIVVEEEYSKMEVFNATGQLVKNESLVPGVYVVRITANGVMYFLKVLVPMAGDPLEHHHHHH | soluble |
| MKRLLLYVHFNKYNRVSSHVVYQLTQMRSLFSKVIFISNSQVADADVKMLREKHLIDDFIQRQNSGFDFAAWRDGMVFVGFDELVTYDSVTTMNDTCFGPLWEMYSIYQEFETKTTVDFWGLTNNRATKSFREHIQSYFISFKASVLRSTAFRDFWENIKEYQDVQKVIDQYETKVTTTLLDAGFQYDVVFDTTKEDASHMLHADFSYYNPTAILNHRVPFIKVKAIDNNQHITPYLLNDIQKNSTYPIDLIVSHMSEINYPDFSYLLGHKYVKKRERVDLKNQKAAVHLHVFYVDLLEEFLTAFKQFHFSYDLFITTDSDDKKAEIEEILSANSQEAQVFVTGNIGRDVLPMLKLKNYLSTYDFVGHFHTKKSKEADFWAGQSWREELIDMLVKPADNILAQLQQNPKIGLVIADMPTFFRYNKIVDAWNEHLIAPEMNTLWQKMGMTKKIDFNAFHTFVMSYGTFVWFKYDALKPLFDLNLTDDDVPEEPLPQNSILHAIERLLIYIAWNEHYDFRISLEHHHHHH | not soluble |
| MKRMIVRMTLPLLIVCLAFSSFSASARAASEEKYWDHWIERHAQPLDASNASNKDLRFLKKVLKGKRIVQLGETTHGAGEINATKVRMIKYLHEELGYDVLAFESGFPDTNASYLNMDQLTPKSTMKNSIYAVWHTEDVVELFDYMKEQKEKGDPLILTGFDIQSMKNSFNVAATQWVKAVDPEKAELLSQSENDFSTLVTDSNTFDEFSQKKEKLVKNYQKLIKFTKTHASELKENLPKEPKAYEMFMHSLQLRIDVMETYMLEEMKEKLEEYPENIEDFSFFMRDRMMAEQFQWVADTLYPKKKIIVWGHNYHLRKQNTKMIKDWVQLNGPNMGDYLPERLKKQTYTIGIYAYSGASLDSSDNKTVKPVTSPPPSGSLEALLKAADRPAVFVDFLHTKNKKGTSWMYTPRTALYWGYMEEQMILKEQYDGVIWLEHITPSVIIKLEHHHHHH | not soluble |
| MKRPDYRTLQALDAVIRERGFERAAQKLCITQSAVSQRIKQLENMFGQPLLVRTVPPRPTEQGQKLLALLRQVELLEEEWLGDEQTGSTPLLLSLAVNADSLATWLLPALAPVLADSPIRLNLQVEDETRTQERLRRGEVVGAVSIQHQALPSCLVDKLGALDYLFVASKPFAERYFPNGVTRSSLLKAPAVAFDHLDDMHQAFLQQNFDLPPGSVPCHIVNSSEAFVQLARQGTTCCMIPHLQIEKELESGELINLTPGLLQRRMLYWHRFAPESRMMRKVTDALLEYGHKVLRQD | not soluble |
| MKRRRKSGEKVQMHRFALPLCYGSEAPYYYYEVAPHEREERFHLTSELCVMDDEHYFIRGCLEIPIIDYHENFIWTVWVSLSKESYDEVLEKWDERGRENSDPYFGWLSVEMPVYPETLNLKTNVHIREVGTAPYVELEPTEHPLAIEQRNGITLERVKEIQEMIQRHS | not soluble |
| MKRSNTVRLVVSKEQHEVLKRLGIATAKCWNEVNWLRMKQYKEGKRVDFGITEKAVYEKYKSVLRVNAQQVARKNAEDWRSFFSLTREKKEGKLPSWFKPRPPGYWKDGRLIVIIRNDRYTVDERNRVVYLKDFNLSLKFKGRLKWHGKQGRLEIIYDEARKIWYAHIPVEVETEKVKEGIKASIDLGIVNLATVYVEDGSWYLFKGGSALSHYENYSKRITIVQKTLHRHRQRRSRRLKLLHEKRSRFLKHALNSMVRRIMEILREKNVGEVVVGYPKEIAKHHGNKLTVNFWNYSYIIKRLEDIGEELGIKVITVDEAYTSKTCSLCGEAHEDGRVKRGLFVCPRTRKAINADLNGAINILHIPESRGSEGNFHRGIGVIGLKTQPVTLSDLSKIKNHYNYSISDYTILHYIQPLEHHHHHH | soluble |
| MKRVISKILKKEKEKEEEVEEKTIGLIIDGPNILRKEFGIKLEDIKKALEKIGKIRVAKVVLNQYAPQGLIEAVVNQGFEPIIVAGDTDVRVAIEAMELIYNTDVDVIALATRDADFLPLISEAKRKGKETVVIGVEPGFSVALQNAADYIIKMEKKKEAEGY | soluble |
| MKRYSTKHFKRILIANNVNIDIDLKTGIVAKNMAKKEKIEQVISMGGIMWEGLNSSLIKVDEALLKQQI | soluble |
| MKSALSLLGERQQSLLTALLHHRKGLTVEELSSLLTISRNAVNQHLTHLGSSGFIQSALQESTGGRPGRVYTLTPNGLELFQRRYSFLAKLLLSWIDKNMGEHELDVCLTELGKEMASGLEHRLTQHTSRSDKLQEAITIMSELGYDTEIYRISENQAEIVANNCVFQELAQQHQEFCKLDISFLKHLLKADIEHTECIVRNGKYCRFRITSPDESGS | not soluble |
| MKSATSAQRPYQEVGAMIRDLIIKTPYNPGERLPPEREIAEMLDVTRTVVREALIMLEIKGLVEVRRGAGIYVLDNSGSQNTDSPDANVCNDAGPFELLQARQLLESNIAEFAALQATREDIVKMRQALQLEERELASSAPGSSESGDMQFHLAIAEATHNSMLVELFRQSWQWRENNPMWIQLHSHLDDSLYRKEWLGDHKQILAALIKKDARAAKLAMWQHLENVKQRLLEFSNVDDIYFDGYLFDSWPLDKVDA | soluble |
| MKSIVGVYETPQETIAAIEGLLTKGYDSDDISVVTSRRDTDYLESRTGTEVNQAIDAHQDESESFFDKLKDYFTMDDTATHSKALSDLDIKTDEIDKYQEDLDDGKLLVAVDTDADVIAPIDNGNALSGGFSSTNELDYTTKEEKTMPLREEQLKVDKEDVQTGEVEIGKEVKTEKRDMDIPVRHDEIYVERRPVDENKTDAAPVNDSEEIRVPIVEEKLEVTKKPVVTDEVVVGKRTVEENEHISETVKKEEPRLNKEGKVDGLDDDPLNNQMKIIDRQPKNLKSLEHHHHHH | soluble |
| MKSKKILIVGAGFSGAVIGRQLAEKGHQVHIIDQRDHIGGNSYDARDSETNVMVHVYGPHIFHTDNETVWNYINKHAEMMPYVNRVKATVNGQVFSLPINLHTINQFFSKTCSPDEARALIAEKGDSTIADPQTFEEQALRFIGKELYEAFFKGYTIKQWGMQPSELPASILKRLPVRFNYDDNYFNHKFQGMPKCGYTQMIKSILNHENIKVDLQREFIVDERTHYDHVFYSGPLDAFYGYQYGRLGYRTLDFKKFIYQGDYQGCAVMNYCSVDVPYTRITEHKYFSPWEQHDGSVCYKEYSRACEENDIPYYPIRQMGEMALLEKYLSLAENETNITFVGRLGTYRYLDMDVTIAEALKTAEVYLNSLTDNQPMPVFTVSVGHHHHHH | soluble |
| MKSLEEKTIAKEQIFSGKVIDLYVEDVELPNGKASKREIVKHPGAVAVLAVTDEGKIIMVKQFRKPLERTIVEIPAGKLEKGEEPEYTALRELEEETGYTAKKLTKITAFYTSPGFADEIVHVFLAEELSVLEEKRELDEDEFVEVMEVTLEDALKLVESREVYDAKTAYAIQYLQLKEALQAQK | not soluble |
| MKTALLLKTKSQPFDPYVEAFEKYGRDTAFIPVLRHKRVHEEQLRDKLKNVRKTYCGLIVTSQRVSETLDEALKQEDETERQKILMETPIFTVGPATDDSIRRLGFQQTHGKDCGRGEVLADLIEEWYTTTKQHKPLLFLVGEKHRDIIQRKLGDDRVDSLIVYATQELENTETQIKDTIRKHPTIDWIVAFSPTSICSLLNTFELKIATIGPTTGDYLKKLGTQPNVVSPAPNPESLASSIVAFDEENSS | soluble |
| MKTCYYELLGVETHASDLELKKAYRKKALQYHPDKNPDNVEEATQKFAVIRAAYEVLSDPQERAWYDSHKEQILNDTPPSTDDYYDYEVDATVTGVTTDELLLFFNSALYTKIDNSAAGIYQIAGKIFAKLAKDEILSGKRLGKFSEYQDDVFEQDINSIGYLKACDNFINKTDKLLYPLFGYSPTDYEYLKHFYKTWSAFNTLKSFSWKDEYMYSKNYDRRTKREVNRRNEKARQQARNEYNKTVKRFVVFIKKLDKRMKEGAKIAEEQRKLKEQQRKNELNNRRKFGNDNNDEEKFHLQSWQTVKEENWDELEKVYDNFGEFENSKNDKEGEVLIYECFICNKTFKSEKQLKNHINTKLHKKNMEEIRKEMEEENITLGLDNLSDLEKFDSADESVKEKEDIDLQALQAELAEIERKLAESSSEDESEDDNLNIEMDIEVEDVSSDENVHVNTKNKKKRKKKKKAKVDTETEESESFDDTKDKRSNELDDLLASLGDKGLQTDDDEDWSTKAKKKKGKQPKKNSKSTKSTPSLSTLPSSMSPTSAIEVCTTCGESFDSRNKLFNHVKIAGHAAVKNVVKRKKVKTKRI | not soluble |
| MKTGYVLKGRVIDGTLGPALEQGAVVTEGERIAWVGPQSGLPAQYAGDRHTVVDLPGRTIMPGLIDAHTHISFGESRSEEENALYTPVEFRTAKALWYARKVLQAGVTSAFDAATSYNIAQAVRDAIDTGMFEGPRFTVSGKQLTNHHGLEDSFPNEMAFPPGQSAVLVKTREDLVEAIHYQVKDEVDAIKVSGSNDNLITPDALGSSAFTYEEFKIIADETHRLGRLCSVHARSRDAALYAAQAGFDNLFHASYIDDEGIEACLKNGCVITPTLTLLVNLVEAKQSHAGASSAQAFRQEIEAASVNLRRAYDAGVPLLAGSESGWSPVPYGHWHAREMEIFVKLLGLTPLQAIHANTLACTRLLARHGHEVGKLEASRLADVLVLPGNPLEDITLLQRPSRFDYIFKGGTPVDRTAPAPRVRKWYERTKIFLAGVYEYDQENACGRLVQ | not soluble |
| MKTIHIYTNGRLEEKRGDIVREFPLVLQVNGREIATLIASPHDLRFLVAGFLRNQGFVESAADFHMLAVCDEFGIANVRIRQELPERLKPVLTSGCGTGITFTLETGGREAAVAPSPAVAPEAVFRLMEELARQADNYRNHGGIHSAAVGDGEGNLLLFAEDIGRHNTLDRIAGEALLKGIDLAGRILVTSGRVSTEMASKCARLGIALVASRTSATDMAATLCHEAGICLLGYVRGGKFTVYTHSDRLLVPEQAAASLPGPVPRGRIPGVTGVILAGGQSSRMGSNKALLPYRGGRFIESIHRQLSEYFDEVIVVTNTPEQYEFLPCRKVTDIHEGMGALAGIHAGLHHSSNPAAFVVACDMPYLNGDLIRHLASMADPGGVLIPESPTGLEPLHAVYGKGCLAAIEATLLSGQRRIVSFFGRTNVNRVNVAQIAAFDPEFNSFRNINTPTDYYRLREIERGEALPAPADERAGASALEHHHHHH | not soluble |
| MKTIIREMVETIKQLFAQKQQMQEPVVANYEVSEIVEQKTLKKKEESEKTGEKTGKSNKWSQSLTLQLKEYLNDNFDFRYNNLTGATEYREKSGKNCFRPIDEREMNGMIVDARLEGIPCWRGDVPTMVLSNKVESYNPFHLYVKELPGWDGVDRVTPLLLRVSDNEIWLRGGRCWLRAMLSQWSGEERLHANVLTPVLISGKQGLSKSTFCRLLMPDSLRHYFIDNLNLAAGSSPEKKLVKNGLINLDEFDKIKESQQATLKNLLQMVNVPVFRGKRLGWVNESRLASFIATTNVYQVLIDSTGSRRFLCVEVLKPISEEPLEHKQIYAQLKEELKSGAPDYLNKEEEKALQKHNKAYYRQSLLEDVFHCCFRHPLETEKGIWLTTAEIFQVMRKFNSAALKEVSARQLGLKLSAMGYMAKHTSFGNRYYVFNLSAEKKDASL | not soluble |
